Primed or numbered codes have the meaning given here. No end group written: not given here. FITC′ = fluorescein label, attached via β-alanine spacer; βAla = NCCC(=O)O

Results on one molecule are retold here after patent US20080003178A1 (BIOINCEPT, published 2008).

The assay has as its target T1, CD58 (human, UniProt P19256 29-250).
T1 construct: whole, on cells; also called platelet marker CD58
T1 sequence: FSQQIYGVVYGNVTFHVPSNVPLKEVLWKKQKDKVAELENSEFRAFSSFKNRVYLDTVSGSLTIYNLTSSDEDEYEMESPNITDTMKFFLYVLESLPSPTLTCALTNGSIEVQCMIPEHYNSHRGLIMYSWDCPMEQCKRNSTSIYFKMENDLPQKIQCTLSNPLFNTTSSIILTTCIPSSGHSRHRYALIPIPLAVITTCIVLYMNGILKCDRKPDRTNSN
Briefly: flow cytometry, FITC sPIF-1(15) on human blood cells; no binding to platelets.

B1: FITC labeled sPIF-1(15) (peptide)
peptide: {FITC′-βAla}-MVRIKPGSANKPSDD
notes: also called FITC sPIF-1(15); FITC sPIF-1
On to B1, for which the binding result is listed as “no binding”.
